# Experimental data as given in publication PMC11981803.
# What was measured:
# [1] = biological target: transmembrane domain of SaeS (SaeS TM), reconstituted into DMPC/DHPC bicelles (Staphylococcus aureus); experiment: SPR
# [2] = biological target: transmembrane domain of SaeS (SaeS TM), reconstituted into DMPC/DHPC bicelles (Staphylococcus aureus); experiment: SDS-PAGE
# transmembrane domain of SaeS (SaeS TM), reconstituted into DMPC/DHPC bicelles (Staphylococcus aureus), sequence (Q2FIT5 whole entry, the tested form may be a part): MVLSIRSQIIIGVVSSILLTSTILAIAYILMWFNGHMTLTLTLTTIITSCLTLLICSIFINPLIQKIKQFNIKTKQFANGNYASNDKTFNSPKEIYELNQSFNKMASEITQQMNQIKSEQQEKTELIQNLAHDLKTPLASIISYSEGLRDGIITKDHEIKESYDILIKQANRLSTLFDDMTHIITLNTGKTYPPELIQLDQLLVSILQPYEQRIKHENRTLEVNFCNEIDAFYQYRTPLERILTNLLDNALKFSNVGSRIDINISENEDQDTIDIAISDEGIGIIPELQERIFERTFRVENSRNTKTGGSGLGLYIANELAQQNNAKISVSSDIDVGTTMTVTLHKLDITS
Substance,Kd [1] [nM],koff [1] [s⁻¹],kon [1] [M⁻¹ s⁻¹],stoichiometry N [2]
Human neutrophil defensin-1 (from UniProt P59665 65-94) (peptide),1070,0.0186,17400,
"transmembrane domain of SaeS (SaeS TM), reconstituted into DMPC/DHPC bicelles (domain or fragment)",,,,2
